In assay [1] the target is human GPC3 (form in the assay not stated) (human, UniProt P51654 25-559, limits assumed). The assay is described as follows: method not stated.
The target of assay [2] is T1, Human NKp46 antigen (Acro Biosystems) expressed on HEK293 cells or CHO cells (human, UniProt O76036 22-255).
T1 construct: Bought
Put plainly: ELISA on coated human NKp46 antigen, normalized binding curve.

Assay [3] concerns the target T2, human NKp46 (form in the assay not stated) (human, UniProt O76036 22-255, limits assumed). The assay is described as follows: BIAcore.
Assay [4] addresses T2, human NKp46 (form in the assay not …). Put plainly: BIAcore; SE(KD) 2.20E-10. (Surface plasmon resonance follows binding to a sensor surface in real time, without labels.)

Numbering of substitutions follows the chain as printed.

Broadly, the Kd is the concentration at which binding is half-saturated. Read a high Kd as weaker binding. By kon is commonly meant the rate constant with which the complex forms. A low value points to slow association.

T1 sequence (O76036 22-255 limits assumed): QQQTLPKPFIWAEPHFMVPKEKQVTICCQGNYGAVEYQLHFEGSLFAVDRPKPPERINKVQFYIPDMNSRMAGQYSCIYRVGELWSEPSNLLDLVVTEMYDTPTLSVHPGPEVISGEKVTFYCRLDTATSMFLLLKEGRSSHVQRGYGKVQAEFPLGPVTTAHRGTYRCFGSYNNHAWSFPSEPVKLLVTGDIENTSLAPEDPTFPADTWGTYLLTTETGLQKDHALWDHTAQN
T2 sequence (O76036 22-255 limits assumed): as above
Sequence of human GPC3 (form in the assay not stated) (P51654 25-559 limits assumed): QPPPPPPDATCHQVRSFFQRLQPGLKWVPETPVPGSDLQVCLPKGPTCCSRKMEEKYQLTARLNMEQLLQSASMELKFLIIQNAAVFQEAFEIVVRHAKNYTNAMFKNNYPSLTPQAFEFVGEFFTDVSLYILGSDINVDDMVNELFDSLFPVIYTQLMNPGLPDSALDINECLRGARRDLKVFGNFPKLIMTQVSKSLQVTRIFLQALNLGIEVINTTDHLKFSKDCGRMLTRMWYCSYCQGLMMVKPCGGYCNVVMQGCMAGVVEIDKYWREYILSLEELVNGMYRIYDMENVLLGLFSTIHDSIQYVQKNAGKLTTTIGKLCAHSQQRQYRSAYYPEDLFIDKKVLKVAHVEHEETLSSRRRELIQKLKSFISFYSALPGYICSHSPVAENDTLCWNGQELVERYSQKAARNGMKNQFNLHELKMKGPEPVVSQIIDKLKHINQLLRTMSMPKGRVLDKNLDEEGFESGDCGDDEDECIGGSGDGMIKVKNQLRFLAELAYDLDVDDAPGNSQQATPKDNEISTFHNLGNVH

B1: NKE1 (GPC3/NKp46/wt_IgG1), FLEX-NK tetravalent NKp46 engager directed against GPC3 (bispecific antibody)
heavy: not shown
light 1: DIVMTQSPATLSLSPGERATLSCRASQSISDYLHWFQQKPHESPRLLIKYASQSISGIPARFSGSGSGSDFTLTISSLEPEDFAVYYCQNGHSFPLTFGPGTKVDIKRTVAAPAVFIFPPSDEQLKSGTASVVCLLKNFYPREAKVQWKVDNALQSGNSQESVTEQDSKDSTYSLSSTLTLSKADYEKHKVYACEVTHQGLSSPVTKSFNRGEC
light 2: not shown
notes: Tetravalent; also called wildtype NKE1; copies: 2 + 2 + 2
In the case of B1, the “fold higher affinity compared to human NKp46” value in assay [1] is about 50 fold.

B2: humanized 09 anti-NKp46 antibody (antibody, IgG4, V domains shown)
VH: EVQLQQSGAEVKKPGSSVKVSCKTSGYTFTEYSMHWVRQAPGKSLEWFGGISPNSGGTSYNQKFKGRATLTVDKSSSTAYMELSSLRSEDTAVYYCARRDFHSSFDYWGQGTTVTVSS
VL: DIVMTQSPATLSLSPGERATLSCRASQSISDYLHWFQQKPHESPRLLIKYASQSISGIPARFSGSGSGSDFTLTISSLEPEDFAVYYCQNGHSFPLTFGPGTKVDIK
notes: Humanized with an IgG4 framework; ELISA used MAbs with humanized variable and mutated IgG4, kappa light chain detected; also called 09 antibody humanized
As to B2, the Kd in assay [2] is about 0.027 nM.

B3: humanized 12 anti-NKp46 antibody (antibody, IgG4, V domains shown)
VH: B2 VH
VL: B2 VL with M4L
notes: Humanized with an IgG4 framework; ELISA used MAbs with humanized variable and mutated IgG4, kappa light chain detected; also called 12 antibody humanized
B3 had a Kd in assay [2] of about 0.025 nM.

B4: mouse anti-NKp46 monoclonal antibody 09 (antibody, V domains shown)
VH: EVQLQQSGPELVKPGTSVKISCKTSGYTFTEYSMHWVKQSHGKSLEWFGGISPNSGGTSYNQKFKGKATLTVDKSSSTAYMELRSLTSEDSAVYYCARRDFHSSFDYWGQGTTLTVSS
VL: DIVMTQSPATLSVTPGDRVSLSCRASQSISDYLHWFQQKSHESPRLLIKYASQSISGIPSRFSGSGSGSDFTLSINSVEPEDVGVYYCQNGHSFPLTFGPGTKLELK
notes: Mouse hybridoma antibody raised in NKp46-deficient mice against NKp46-Ig; also called 09 antibody; mAb 09
As for B4, in assay [3], the kon amounted to 6.22e+07 M⁻¹ s⁻¹.

B5: mouse anti-NKp46 monoclonal antibody 12 (antibody, V domains shown)
VH: B4 VH
VL: B4 VL with M4L, D17N, R18S
notes: Mouse hybridoma antibody; also called 12 antibody; mAb 12
In assay [4], B5 showed a Kd of 1.67 nM.

These data come from US20240199759A1 (CYTOVIA THERAPEUTICS, published 2024).
